According to PMC8115823:
pKd: −log10 of the molar value.

Columns and labels:
[1] = target: RNA polymerase (Escherichia coli) (UniProt P0A7Z4); conditions: cited from earlier work
[2] = target: DNA topoisomerase I (TopoI) of Streptococcus pneumoniae (S. pneumoniae); assay: SPR; TopoI immobilised on a new CM5 chip; RNAP holoenzyme 240 nM injected alone (no drug)
[3] = target: DNA topoisomerase I (TopoI) of Streptococcus pneumoniae (S. pneumoniae); assay: SPR; TopoI immobilised on a new CM5 chip; RNAP holoenzyme 240 nM incubated with 1 x MIC rifampicin (Rif)
[4] = target: DNA topoisomerase I (TopoI) of Streptococcus pneumoniae (S. pneumoniae); assay: SPR; TopoI immobilised on a new CM5 chip; RNAP holoenzyme 240 nM incubated with 1 x MIC seconeolitsine (SCN)
[5] = target: DNA topoisomerase I (TopoI) of Streptococcus pneumoniae (S. pneumoniae); assay: SPR; Biacore X100; about 3000 RU of TopoI immobilised on a CM5 chip by amine coupling; RNAP holoenzyme 7.5-240 nM flowed at 50 ul/min; 25 C; 20 mM Tris HCl pH 7.5, 100 mM NaCl, 10 mM MgCl2, 0.1 mM EDTA, 1 mM DTT, 0.005% Tween-20, 5% glycerol; regeneration with 1 M NaCl; kinetic fit; two independent assays

Sequence of DNA topoisomerase I (P06612 whole entry): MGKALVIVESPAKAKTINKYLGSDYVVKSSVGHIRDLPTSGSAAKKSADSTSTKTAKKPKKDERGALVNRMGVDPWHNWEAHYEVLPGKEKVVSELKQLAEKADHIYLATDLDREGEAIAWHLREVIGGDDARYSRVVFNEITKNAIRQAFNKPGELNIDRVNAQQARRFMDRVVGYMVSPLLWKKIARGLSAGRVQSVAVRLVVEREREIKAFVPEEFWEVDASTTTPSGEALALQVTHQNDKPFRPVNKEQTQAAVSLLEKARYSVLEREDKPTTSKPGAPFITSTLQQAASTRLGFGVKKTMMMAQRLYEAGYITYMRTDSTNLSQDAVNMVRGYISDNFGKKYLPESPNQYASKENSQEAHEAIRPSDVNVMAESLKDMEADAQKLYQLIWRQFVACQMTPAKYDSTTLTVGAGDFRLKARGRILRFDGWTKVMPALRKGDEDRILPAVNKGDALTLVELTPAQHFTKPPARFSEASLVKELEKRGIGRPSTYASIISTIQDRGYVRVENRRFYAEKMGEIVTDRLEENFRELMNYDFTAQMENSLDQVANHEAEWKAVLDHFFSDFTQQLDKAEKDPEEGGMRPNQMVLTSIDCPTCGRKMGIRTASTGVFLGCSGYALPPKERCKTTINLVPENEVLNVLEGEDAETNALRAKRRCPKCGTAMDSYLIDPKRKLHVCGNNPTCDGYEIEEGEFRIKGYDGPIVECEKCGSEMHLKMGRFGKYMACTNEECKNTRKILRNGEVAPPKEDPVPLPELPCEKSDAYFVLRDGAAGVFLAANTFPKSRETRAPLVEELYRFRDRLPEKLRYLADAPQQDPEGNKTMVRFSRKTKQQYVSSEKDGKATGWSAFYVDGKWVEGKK

SPR response (no drug) [2] [RU]	SPR response with Rif [3] [RU]	SPR response with SCN [4] [RU]	pKd [5]	Substance	pKd [1]
				DNA topoisomerase I (from UniProt P06612)	7.03
173	122	40.9	7.57	RNA polymerase (RNAP) holoenzyme of Streptococcus pneumoniae (from UniProt P66708 1-311; A0A0H2ZQA1 1-369) (complex)	
